Earlier results on one substance are cited in article PMC8417749.

The target of data set [1] is CXCR2 (Homo sapiens) (UniProt P25025).
The target in data set [2] is CXCR1 (Homo sapiens) (UniProt P25024).
Sequence of CXCR1 (Homo sapiens) (P25024 whole entry): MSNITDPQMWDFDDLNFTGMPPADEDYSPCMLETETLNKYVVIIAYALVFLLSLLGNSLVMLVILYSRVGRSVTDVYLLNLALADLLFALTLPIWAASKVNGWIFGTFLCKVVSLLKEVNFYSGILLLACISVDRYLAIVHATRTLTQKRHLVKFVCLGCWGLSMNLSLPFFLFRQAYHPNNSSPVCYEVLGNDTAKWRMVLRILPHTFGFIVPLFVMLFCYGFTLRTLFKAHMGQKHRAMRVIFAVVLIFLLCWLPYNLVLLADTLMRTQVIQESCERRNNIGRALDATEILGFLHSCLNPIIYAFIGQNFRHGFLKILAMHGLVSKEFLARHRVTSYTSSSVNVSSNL

Sequence of IL-8 (P10145 28-99): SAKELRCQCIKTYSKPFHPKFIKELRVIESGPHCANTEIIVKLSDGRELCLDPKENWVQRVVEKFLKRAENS
Sequence of CXCR2 (Homo sapiens) (P25025 whole entry): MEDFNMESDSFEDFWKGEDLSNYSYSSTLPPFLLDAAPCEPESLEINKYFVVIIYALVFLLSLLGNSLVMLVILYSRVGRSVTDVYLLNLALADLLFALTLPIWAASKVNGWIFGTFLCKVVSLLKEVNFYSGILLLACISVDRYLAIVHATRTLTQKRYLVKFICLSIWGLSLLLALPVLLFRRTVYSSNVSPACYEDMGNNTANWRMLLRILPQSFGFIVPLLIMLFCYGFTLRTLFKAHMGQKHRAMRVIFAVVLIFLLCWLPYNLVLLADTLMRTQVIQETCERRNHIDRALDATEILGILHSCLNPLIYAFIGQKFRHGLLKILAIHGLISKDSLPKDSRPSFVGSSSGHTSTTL

Broadly, the Kd is the equilibrium constant for the complex coming apart. For the substance IL-8 (from UniProt P10145), the Kd in data set [1] and in data set [2] was 2 nM each time.
